Positions of bridges follow the written chain, without caps; N, C: chain ends. No end group written: not given here.
T1: EPO receptor (Homo sapiens, UniProt P19235)
T1 sequence (P19235 25-508): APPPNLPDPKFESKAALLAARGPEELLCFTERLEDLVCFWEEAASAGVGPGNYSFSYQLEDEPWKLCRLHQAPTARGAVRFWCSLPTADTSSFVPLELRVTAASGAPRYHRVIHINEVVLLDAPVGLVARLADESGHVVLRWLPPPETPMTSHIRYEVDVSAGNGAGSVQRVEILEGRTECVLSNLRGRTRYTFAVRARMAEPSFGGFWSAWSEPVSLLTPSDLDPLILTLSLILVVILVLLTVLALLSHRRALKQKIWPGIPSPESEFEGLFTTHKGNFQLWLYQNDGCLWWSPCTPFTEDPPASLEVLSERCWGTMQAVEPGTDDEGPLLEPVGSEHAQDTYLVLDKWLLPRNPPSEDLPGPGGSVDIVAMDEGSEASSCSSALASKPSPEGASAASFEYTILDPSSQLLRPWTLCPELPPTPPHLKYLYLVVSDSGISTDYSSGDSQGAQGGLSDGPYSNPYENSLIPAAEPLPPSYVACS

T2: EBP (extracellular fragment of human EPO receptor, residues 1-225) (Homo sapiens, UniProt P19235)
T2 construct: consisting of residues 1-225, was expressed in Escherichia coli; made in house; host or cells: Escherichia coli
T2 sequence (P19235 25-249): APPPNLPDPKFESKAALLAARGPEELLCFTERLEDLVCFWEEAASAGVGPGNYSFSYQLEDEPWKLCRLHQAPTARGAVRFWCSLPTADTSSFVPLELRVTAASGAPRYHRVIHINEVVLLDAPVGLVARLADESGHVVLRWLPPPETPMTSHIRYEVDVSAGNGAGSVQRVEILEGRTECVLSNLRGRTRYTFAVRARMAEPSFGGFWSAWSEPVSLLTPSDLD

B1: EPO binding protein (EBP), extracellular fragment of human EPO receptor, residues 1-225 (receptor, UniProt P19235 25-249, looked up)
chain: T2 sequence (P19235 25-249)
notes: range 1-225; they probably count on the mature receptor without signal peptide; Two EBP molecules stand in the asymmetric unit with two peptides; also called EBP1; EBP2

Assays:
EPO responsive cells = assay: phosphorylation events and cell cycle progression in EPO responsive cells; type: cell-based
[1] = test system: nascent red blood cell production; assay: in vivo assays of nascent red blood cell production; conditions: mice; two different in vivo assays of nascent red blood cell production
EPO receptor = target: T1, EPO receptor; assay: receptor binding assays, competition with EPO
[2] = target: T2, EBP (extracellular fragment of human EPO receptor, residues 1-225); assay: DPDPB crosslinking of EBP in solution (peptide-dependent dimerization); type: biochemical; conditions: co-incubation of EMP1, DPDPB and EBP; no significant dimer in the absence of peptide
Protocol: To explore the interaction of EMP1 with EBP in solution we employed a bifunctionalsulphydryl reactive crosslinker DPDPB, [1,4-di-(2′-pyridyldithio propionamido) butane], in an attempt to stabilize a peptide-dependent dimeric structure. […] A dimeric EBP product is formed by co-incubation of EMP1, DPDPB and EBP. The amount of dimeric product increases with peptide concentration and no significant dimer product is observed in the absence of peptide. DPDPB-crosslinked products formed through disulfide-exchange reactions should be readily reversible by reduction as is seen for the covalently-linked EMP1-mediated dimer. […] The Cys^181 residues in D2 of the EBP dimer are 20.7 Å apart (Sγ-Sγ distance) which approximates the 16 Å length (and approximately 2 Å in bond length at each end) of the DPDPB cross-linker.

[3] = test system: cell lines engineered to be responsive to EPO; assay: cellular proliferation of cell lines engineered to be responsive to EPO; type: cell-based
[4] = target: the molecule itself; assay: DPDPB sulphydryl crosslinking of EBP in solution
[5] = target: B1; assay: DPDPB crosslinking in solution; dimeric product increases with peptide concentration

**Q.** Which results are given for “GGTYSCHFGPLTWVCKPQGG (disulfide 6-15 (inferred)) [EMP1]”?
**A.** cascade of phosphorylation events and cell cycle progression (EPO responsive cells): induce a similar cascade of phosphorylation events and cell cycle progression; erythropoietic effects [1]: significant erythropoietic effects; competition with EPO in receptor binding assays (EPO receptor): competes with EPO; formation of dimeric EBP product [2]: mediates formation of a soluble EBP dimer complex in solution; induction of cellular proliferation [3]: induces cellular proliferation

**Q.** Does B1 bind [4]?
**A.** no binding

**Q.** Does GGTYSCHFGPLTWVCKPQGG (disulfide 6-15, also called RWJ 61233; peptide-2) [EMP1 (EPO Mimetic Peptide 1)] bind [5]?
**A.** binds

Source: US7272508B2, “Small molecule mimetics of erythropoietin” (The Scripps Research Institute, priority 1996, dated 2007)
